Assay in all cases: cell-based or functional assay
For experiment [1], the target named is T1, SARS-CoV-2 BA.1 Spike on pseudovirus (SARS-CoV-2, UniProt P0DTC2 14-1273).
For experiment [2], the target named is T2, SARS-CoV-2 BA.2.12.1 Spike on pseudovirus (SARS-CoV-2, UniProt P0DTC2 14-1273).
In experiment [3] the target is T3, SARS-CoV-2 BA.2 Spike on pseudovirus (SARS-CoV-2, UniProt P0DTC2 14-1273).
Experiment [4] concerns the target T4, SARS-CoV-2 Delta Spike on pseudovirus (SARS-CoV-2, UniProt P0DTC2 14-1273).
The target in experiment [5] is T5, SARS-CoV-2 BA.4/5 Spike on pseudovirus (SARS-CoV-2, UniProt P0DTC2 14-1273).
For experiment [6], the target named is T3, SARS-CoV-2 BA.2 Spike on pseudovirus. The source holds these as a separate data set.
Experiment [7] has as its target T4, SARS-CoV-2 Delta Spike on pseudovirus. This is another data set of the same source.
The target of experiment [8] is T5, SARS-CoV-2 BA.4/5 Spike on pseudovirus. This is another data set of the same source.
Experiment [9] deals with T1, SARS-CoV-2 BA.1 Spike on pseudovirus. The source holds these as a separate data set.
Experiment [10] deals with T2, SARS-CoV-2 BA.2.12.1 Spike on …. The source holds these as a separate data set.
In experiment [11] the target is T3, SARS-CoV-2 BA.2 Spike on pseudovirus. The source holds these as a separate data set.
Experiment [12] addresses T4, SARS-CoV-2 Delta Spike on pseudovirus. This is another data set of the same source.
For experiment [13], the target named is T5, SARS-CoV-2 BA.4/5 Spike on pseudovirus. The source holds these as a separate data set.
The target is the same in experiment [14]. This is another data set of the same source.
Experiment [15] deals with T2, SARS-CoV-2 BA.2.12.1 Spike on …. The source holds these as a separate data set.

Where a chain is given by its changes, count along the chain named. Read-outs that look alike come from different tables or passages of the source.

B1: AB-1 (antibody, V domains shown)
VH: EVQLVESGAEVKKPGESLKISCKGSGYTFTRYWIGWVRQMPGKGLEWMGIIYPGDSDVRYSPSFQGHVTISADKSISTAYLQWNSLKASDTAMYYCARLPQYCSKGVCYRWFDPWGQGTLVTVSS
VL: EIVLTQSPSSVSASVGDRVTITCRASQGISSWLAWYQQKPGKAPKLLIYAASSLQSGVPSRFSGSGSGTDFTLTISSLQPEDFATYYCQQGHSFPYTFGQGTNLEIK
For the molecule B1, the “IC50, pseudovirus neutralization” value in experiment [1] came to 0.0088 µg/mL; in [2], 0.0133 µg/mL; in [3], 0.0219 µg/mL; in experiment [4], 0.0139 µg/mL; in experiment [5], 0.0278 µg/mL; in experiment [6], 0.031 µg/mL. Besides, the figures for the “IC50, pseudovirus neutralization” value in experiment [7], in [8] and in experiment [14] were 0.034 µg/mL, 0.075 µg/mL and 0.0101 µg/mL, respectively. Moreover, the “% neutralization at 4.5 µg/ml, pseudovirus” value in experiment [9] stood at 96.5%; in experiment [10], 89.2%; in experiment [11], 89.9%; in [12] it was 99.5%; in experiment [13], 90.4%.

B2: Reference Antibody (antibody, V domains shown)
VH: B1 VH with V58T, K105N, Y109Q
VL: B1 VL with H92N
With B2, the “IC50, pseudovirus neutralization” value in [1] was 0.0261 µg/mL; in experiment [2], 0.0307 µg/mL; in experiment [3], 0.0941 µg/mL; in [4], 0.0681 µg/mL; in [5] it was 0.0314 µg/mL; in experiment [15], 0.337 µg/mL. Also, the “IC50, pseudovirus neutralization” value turned out to be 1.25 µg/mL in [6], 0.256 µg/mL in experiment [7] and 0.634 µg/mL in [8]. The “% neutralization at 4.5 µg/ml, pseudovirus” value in experiment [9] stood at 91.9%; in experiment [11], 74.5%; in experiment [12], 93.9%; in [13] it was 74.4%.

The record behind these values is US20240360203A1 (GENERATE BIOMEDICINES, published 2024).
